In paper PMC10412585 (2023):

B1: CD94/NKG2A single-chain fusion protein (human NKG2A ectodomain - GGSGGS - human CD94 ectodomain), produced in Hi5 cells for SPR (receptor)
chain: not shown
B2: CD94/NKG2C single-chain fusion protein (human NKG2C ectodomain - GGSGGS - human CD94 ectodomain), produced in Hi5 cells for SPR (receptor)
chain: not shown

Columns and labels:
[1] = target: GTF3C5_(293-301) HLA-E single chain trimer (soluble, biotinylated) (human, biotin (AviTag)); assay: SPR; weak binder not approaching saturation, inexact
[2] = target: BFAR_(263-271) HLA-E single chain trimer (soluble, biotinylated) (human, biotin (AviTag)); assay: SPR
[3] = target: … peptide HLA-E single chain trimer (soluble, biotinylated) (human, biotin (AviTag)); assay: SPR
[4] = target: CREB3L1_(419-427) HLA-E single chain trimer (soluble, biotinylated) (human, biotin (AviTag)); assay: SPR
[5] = target: AKAP6_(388-396) HLA-E single chain trimer (soluble, biotinylated) (human, biotin (AviTag)); assay: SPR
[6] = target: PISD_(55-63) HLA-E single chain trimer (soluble, biotinylated) (human, biotin (AviTag)); assay: SPR

Binder	Kd [1]	Kd [2]	Kd [3]	Kd [4]	Kd [5]	Kd [6]
B1	~28.1 µM	~0.8 µM	~8.9 µM	~3.3 µM	~4.1 µM	~12.1 µM
B2	~92.4 µM	~1.8 µM	~23.8 µM	~9.8 µM	~15.6 µM	~16 µM
